Test: yeast display, Sf9 membrane polyspecificity reagent, FACS + sequencing; frameworks hold sequencing errors
Summary of the method: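 Nanobodies from a synthetic yeast display library (Saccharomyces cerevisiae BJ5465), induced 36–48 hours with galactose, were stained 1 hour at 4 °C with 10% biotinylated, detergent-solubilized Sf9 membrane reagent, enriched on streptavidin microbeads, then FACS-sorted. Anti-HA (expression) and streptavidin (reagent binding) fluorescence set low and high (top ~1%) gates. Polyreactivity labels come from the gate of origin. Genes were colony-PCR amplified, MiSeq 2 × 250 sequenced and filtered by CDR length.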

## QVQLVESGGGLVQAGGSLRLSCAASGSTFYIYAMGWYRQATGKERELVARITRGGTTYADSEKGRFTISRDNAKNTVYLQMNSLKPEDTAVYYCNAASKTTRYYQAFYSGGGYWGQGTQVTVSS
  polyreactivity (PSR sort gate): high polyreactivity

## QVQLVESGGGLVQAGGSLRLSCAASGSTFYIYGMGWYRQAPGKERELVAAISQRDGSTYYADSEKGRFTSSRDNAKNTVYLQMNSLKPEDTAVYYCNAGLWYSSYDSDYWGQGTQVTVSS
  polyreactivity (PSR sort gate): low polyreactivity

## QVQLVESGGGLVQAGGSLRLSCAASGSTFYKNAMGWYRQAPGKERELVAAITRSGGSTYYADSVKGRFTISRDNAKNTVYLQMNSLKPVDTAVYYCAYYPYGYDYWGQGTQVTVSS
  polyreactivity (PSR sort gate): high polyreactivity

## QVQLVESGGGLVQAGGSLRLSCAASGSTFYKYAMGWYRQAPGKERELVASISRSGGSTSYADSVKGRFTISRDNAKNTVYLQMNSLKPEDTAVYYCAATWRQHPGSMGYWGQGTQVTVSS
  polyreactivity (PSR sort gate): high polyreactivity

## QVQLVESGGGLVQAGGSLRLSCAASGSTFYKYAMGWYRQAPGKERELVASISRSGGSTSYADSVKGRFTISRDNAKNTVYLQMNSLKPEDTEVYYCAATWRQHPGSMGYWGQGTQVTVSS
  polyreactivity (PSR sort gate): high polyreactivity

## QVQLVESGGGLVQAGGSLRLSCAASGSTFYKYAMGWYRQAPGQVREVVASISSSGGSTYADSVKGRFTISRDNAKNTVYLQMNSLKPEDTAVYYCARVRWIVPWSGPTDDYWGQGTQVTVSS
  polyreactivity (PSR sort gate): low polyreactivity

## QVQLVESGGGLVQAGGSLRLSCAASGSTFYKYGMGWYRQAPGTERELVAAISGSGDSTYYADSVKGRFTISRDNAKNTVYLQMNSLKPEDTAVYYCNAGPWWYLHEYDYWGQGTQVTVSS
  polyreactivity (PSR sort gate): low polyreactivity

## QVQLVESGGGLVQAGGSLRLSCAASGSTFYLYAMGWYRQAPGKEREFVARISASGGNTYYADSVKGRFTISRDNAKNTVYLQMNSLKPEDTAVYYCATRGSRYPYVAYNYWGQGTQVTVSS
  polyreactivity (PSR sort gate): high polyreactivity

## QVQLVESGGGLVQAGGSLRLSCAASGSTFYLYAMGWYRQAPGKERELVAAISSGGRTNYADSVKGRFTISLDNAKNTVYLQINSLKPEDTAVYYCAARIQWPTWSLYYYWGQGSQVTVSS
  polyreactivity (PSR sort gate): high polyreactivity

## QVQLVESGGGLVQAGGSLRLSCAASGSTFYNYAMGWYRQAPGKERELVAAITSSGGSTYYADSVKGRFTISRDNAKNTVYLQMNSLKPEDTAVYYCAATRRDRRKSFTYRYDYWGQGTQVTVSS
  polyreactivity (PSR sort gate): high polyreactivity

## QVQLVESGGGLVQAGGSLRLSCAASGSTFYNYAMGWYRQEPGKERELVAAINYSGGDTYYADSVKGRFTISRDNAKNTVYLQMNSLKPEDNAVYYCNAEWDYYSSNPVQNDYDYWGQGTQVTVSS
  polyreactivity (PSR sort gate): high polyreactivity

## QVQLVESGGGLVQAGGSLRLSCAASGSTFYPNAMGRYRQAPGKERELVAAISRGTRTKYADSVKGRFTISRDNAKNNVYLQMNSLKPEDTAVYYCAADTGTGLDWGQGTQVNVSS
  polyreactivity (PSR sort gate): high polyreactivity

## QVQLVESGGGLVQAGGSLRLSCAASGSTFYPNAMGWYIQAPGKERELVADITISGGRTYYADSVKGLFTISRDNAKNTVYLQMNSLKPEDTAVYYCNTRGIFFQSQTHDYWGQGTQVTVSS
  polyreactivity (PSR sort gate): low polyreactivity

## QVQLVESGGGLVQAGGSLRLSCAASGSTFYPNAMGWYRQAPGKERELVAAISGDDSTYYADSVKGRFTISRDNAKNTVYLQMNSLKPEDTAVYYCAAGDYRIGYLYYYWGQGTQVTVSS
  polyreactivity (PSR sort gate): low polyreactivity

## QVQLVESGGGLVQAGGSLRLSCAASGSTFYPNAMGWYRQAPGKERELVAAITSAGSTYYADSVKGRFTISRDNAKNTVYLQMNSLKPEDTAVYYCAKRRASRYYWGQGTQVTVSS
  polyreactivity (PSR sort gate): high polyreactivity

## QVQLVESGGGLVQAGGSLRLSCAASGSTFYPNAMGWYRQAPGKERELVAAITSGGSTNYADSVKGRFTISRDNAKNTVYLQMNSLKPEDTAVYYCAAVGKYRIRSDYWGQGTQVTVSS
  polyreactivity (PSR sort gate): low polyreactivity

## QVQLVESGGGLVQAGGSLRLSCAASGSTFYPNSMVWYRQAPGKERELVAAISRGTRTKYADSVKGRFTISRDNAKNSVYLQKNSLKPEDTAVYYCAADTGTGLDWGQGTQVTVSS
  polyreactivity (PSR sort gate): high polyreactivity

— the nanobody polyreactivity screen of Harvey et al. (2022)
